The values below come from patent US20170204182A1.

The chains are these.
T1: CD81 (UniProt P60033)
T1 sequence (looked up): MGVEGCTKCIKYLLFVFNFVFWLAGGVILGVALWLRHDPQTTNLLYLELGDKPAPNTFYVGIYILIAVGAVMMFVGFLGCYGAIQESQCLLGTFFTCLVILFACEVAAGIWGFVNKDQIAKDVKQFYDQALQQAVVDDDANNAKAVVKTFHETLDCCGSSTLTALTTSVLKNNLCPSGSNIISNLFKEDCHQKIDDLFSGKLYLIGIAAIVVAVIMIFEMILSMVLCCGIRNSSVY

B1: CD81K04 HC GG-05-hVH_1_18 / LC JA_GG-10-hVK_4_1 (antibody, V domains shown)
VH: QVQLVQSGAEVKKPGASVKVSCKASGYTFSSSWMNWVRQAPGQGLEWMGRIYSGDGDAIYAQKLQGRVTMTTDTSTSTAYMELRSLRSDDTAVYYCAREGKTGDLLLRSWGQGTLVTVSS
VL: DIVMTQSPDSLAVSLGERATINCRASKSVSTSIYSYMHWYQQKPGQPPKLLIKYASYLESGVPDRFSGSGSGTDFTLTISSLQAEDVAVYYCEHSREFPFTFGQGTKLEIK
B2: CD81K04 HC JA_GG-14-hVH_1_69 / LC GG-04-hVK_4_1 (antibody, V domains shown)
VH: QVQLVQSGAEVKKPGSSVKVSCKASGYTFSSSWMNWVRQAPGQGLEWMGRIYSGDGDAIYNGKFKGKATITADESTSTAYMELSSLRSEDTAVYYCAREGKTGDLLLRSWGQGTLVTVSS
VL: DIVMTQSPDSLAVSLGERATINCKSSKSVSTSIYSYLAWYQQKPGQPPKLLIYYASTRESGVPDRFSGSGSGTDFTLTISSLQAEDVAVYYCQHSREFPYTFGQGTKLEIK
B3: CD81K13 HC 04-hVH_1_69 / LC 05-hVK_1_39 (antibody, V domains shown)
VH: EVQLVESGGGLVQPGRSLRLSCTASGFNFKDSYLHWVRQAPGQGLEWMGRIDTGNGNVKFDPKFQGRVTITADESTSTAYMELSSLRSEDTAVYYCVPYGYGFHSWGQGTLVTVSS
VL: DIQMTQSPSSLSASVGDRVTITCRASENIYRTLAWYQQKPGKAPKLLIYAATTLASGVPSRFSGSGSGTDFTLTISSLQPEDFATYYCQHFWGTPWTFGQGTKVEIK
B4: CD81K13 HC 04-hVH_1_69 / LC 5b-hVK_1_39-GA (antibody, V domains shown)
VH: EVQLVESGGGLVQPGRSLRLSCTASGFNFKDSYLHWVRQAPGQGLEWMGRIDTGNGNVKFDPKFQGRVTITADESTSTAYMELSSLRSEDTAVYYCVPYGYGFHSWGQGTLVTVSS
VL: DIQMTQSPSSLSASVGDRVTITCRASENIYRTLAWYQQKPGKAPKLLIYGATTLADGVPSRFSGSGSGTDFTLTISSLQPEDFATYYCQHFWGTPWTFGQGTKVEIK
B5: CD81K13 HC 04-hVH_1_69 / LC 5b-hVK_1_39 (antibody, V domains shown)
VH: EVQLVESGGGLVQPGRSLRLSCTASGFNFKDSYLHWVRQAPGQGLEWMGRIDTGNGNVKFDPKFQGRVTITADESTSTAYMELSSLRSEDTAVYYCVPYGYGFHSWGQGTLVTVSS
VL: DIQMTQSPSSLSASVGDRVTITCRASENIYRTLAWYQQKPGKAPKLLIYGATTLADGVPSRFSGSGSGTDFTLTISSLQPEDFATYYCQHFWGTPWTFGQGTKVEIK
B6: CD81K13 HC 04-hVH_1_69 / LC 07-hVK_1_27 (antibody, V domains shown)
VH: EVQLVESGGGLVQPGRSLRLSCTASGFNFKDSYLHWVRQAPGQGLEWMGRIDTGNGNVKFDPKFQGRVTITADESTSTAYMELSSLRSEDTAVYYCVPYGYGFHSWGQGTLVTVSS
VL: DIQMTQSPSSLSASVGDRVTITCRASENIYRTLAWYQQKPGKVPKLLIYAATTLASGVPSRFSGSGSGTDFTLTISSLQPEDVGTYYCQKFWGTPWTFGQGTKVEIK
B7: CD81K13 HC 04-hVH_1_69 / LC 06-hVK_1_39 (antibody, V domains shown)
VH: EVQLVESGGGLVQPGRSLRLSCTASGFNFKDSYLHWVRQAPGQGLEWMGRIDTGNGNVKFDPKFQGRVTITADESTSTAYMELSSLRSEDTAVYYCVPYGYGFHSWGQGTLVTVSS
VL: DIQMTQSPSSLSASVGDRVTITCRASENIYRTLAWYQQKPGKAPKLLIYAATTLASGVPSRFSGSGSGTDFTLTISSLQPEDFGTYYCQHFWGTPWTFGQGTKVEIK
B8: CD81K04 HC JA_GG-14-hVH_1_69 / LC JA_GG-07-hVK_7_3 (antibody, V domains shown)
VH: QVQLVQSGAEVKKPGSSVKVSCKASGYTFSSSWMNWVRQAPGQGLEWMGRIYSGDGDAIYNGKFKGKATITADESTSTAYMELSSLRSEDTAVYYCAREGKTGDLLLRSWGQGTLVTVSS
VL: DIVLTQSPASLAVSPGQRATITCRASKSVSTSIYSYMHWYQQKPGQPPKLLIKYASNKDTGVPARFSGSGSGTDFTLTINPVEANDAANYYCLHSREFPYTFGQGTKLEIK

In this test the target is T1, CD81. The test is described as follows: cell ELISA.
Molecule B1 came in with an ELISA absorbance of 0.841.

For B2, the ELISA absorbance was 0.107.

Take B3: the ELISA absorbance came out at 0.776.

For the molecule B4, the ELISA absorbance worked out at 0.403.

Turning to B5, the ELISA absorbance was found to be 0.428.

Take B6: the ELISA absorbance worked out at 0.085.

B7 came in with an ELISA absorbance of 0.386.

B8 registered an ELISA absorbance of 0.107.
